Reference: the supplement of paper PMC9170038

Tested on: MS2 coat protein
Assay: apparent KD of MS2 coat protein; designed switch direction (-1 OFF switch, 1 ON switch): 1; higher = weaker reporter binding
How it was run: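 SNAP-549-labelled MS2 coat protein was titrated, doubling from 0.7 or 1.5 nM to 3 µM, over designed RNA switches transcribed on Illumina chips by stalled E. coli RNA polymerase. Runs were done without input, with 200 uM small-molecule ligand, or with an oligonucleotide input. Apparent KD is the per-design median over clusters of curve-fitted normalised fluorescence.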

[1] = input ligand: microRNA oligo, concentration not stated
[2] = Eterna round: R95, input ligand: microRNA oligo, concentration not stated
[3] = Eterna round: R95, input ligand: FMN 200 uM
[4] = Eterna round: R95, input ligand: none

Sequence	apparent KD of MS2 coat protein (input ligand: FMN 200 uM) [nM]	apparent KD of MS2 coat protein [1] [nM]	apparent KD of MS2 coat protein (input ligand: none) [nM]	apparent KD of MS2 coat protein [2] [nM]	apparent KD of MS2 coat protein [3] [nM]	apparent KD of MS2 coat protein [4] [nM]
ACAUGAGAGAUAGGAUAUGUUGUACCUACAUGUGACAUGAGGAUCACCCAUGUGGUAAGUAUGAGACAGAAGGAUCAGAUAUGU [Equivalence 31 - Jieux - Same State NG 2] (Eterna round: R96, puzzle: Same State NG 2)	20.8	41.4	74	–	–	–
CCGAUGCUUAUAAACAUGAGGAUCACCCAUGUGAGGACACAUGAGGAUAUGCAGGUCAAAGACUUGCAGAAGGCAUAGCGUCGG [JL SSNG3 3.89] (Eterna round: R96, puzzle: Same State NG 3)	40.7	158	305	–	–	–
AUUCGAUAGAUAGGAUAUCACCAUACAUGAGGAUCACCCAUGUUGACCACGCUGGUUAUUCAUACUGAGAAGGAUCUUGAUGAC [JR_SSNG2_Sub005] (Eterna round: R96, puzzle: Same State NG 2)	27.8	31.1	52.2	–	–	–
UUAACAUGAGGAUCACCCAUGUAUGCGUUGCUUGCAUUUUGACAGGAUAUUGUUUAUCCAUAUAGCAAGAAGGGUCGUUAGUCU [JR_SSNG3_Sub010] (Eterna round: R96, puzzle: Same State NG 3)	80.9	63.1	79.1	–	–	–
GCUUCACAUGAGGAUCACCCAUGUCUUCGGAGUCGAGGAUAUGGUAACUGUAAACAGUUGCCAGAAGGCGAGGAGC [SS1 - Son of Teenbexe v9] (puzzle: Same State 1)	–	–	–	54.6	–	–
AGAUAUCCACGACAUGAGGAUCACCCAUGUUGCUACGACAUGGAGGAUAUUCACGAUACACCUGUGAAGAAGGCUAAGGAUAUU [Eternabot solution 16] (Eterna round: R96, puzzle: Same State NG 3)	631	508	776	–	–	–
ACAUGAGGAUCACCCAUGUAGGCUCAGGAAACUGUGCCACAUGAGGAUAUGGAUCCUAAUUGGAUCCAGAAGGCAUGAUUUAUU [Fiskers NG3ss - 21] (Eterna round: R96, puzzle: Same State NG 3)	243	1240	1290	–	–	–
AUCAUUAAUGCAGGAUAUGAUUAACAUGAGGAUCACCCAUGUGGUGUUGUGAGUAAGGAGAGUGAUCAGAAGGGCAUUUUUUUU [JMF's solution 35] (Eterna round: R96, puzzle: Same State NG 2)	699	292	469	–	–	–
GUGAAGAAUUAAGGAUAUCGAGUCAAGAUGUUAAACAUGAGGAUCACCCAUGUGGGUUGCGGUAUCGAGAAGGUAAAUUACGGG [salish99_SSNG2_r04_503] (Eterna round: R96, puzzle: Same State NG 2)	34.6	27.6	33.2	–	–	–
AUAGUUUCCGAAGGAUAUGAUGAGGAUCACCCAUCAGAAGGUUGGCUAUUGGGCUGACAUGAGGAUCACCCAUGUUCCGGUGUU (Eterna round: R96, puzzle: Same State NG 1)	33.7	31.9	43.3	–	–	–
AGUCCAGCCUGAGCUGGACAAAAGCAUGUACAUGAGGAUCACCCAUGUUCAUGUACAAGCUUUUUGCUCGUCUUAAG [salish99_208a_r3_028] (puzzle: Sensor for hsa-mir-208a)	–	–	–	16	606	602
GAAAAGGCAACGCAGGAUAUGAAAGGUGAAACAUGAGGAUCACCCAUGUGCUACCUUCCGAUAAAUCAGAAGGGCGACGCCAAAA [Leceave] (puzzle: Same State 2)	–	–	–	15.6	15.4	19.4
UUAUAACAUGAGGAUCACCCAUGUCAACAAAGUCGAGGAUAUGGGCAUAGAGGAUAAGAACCAGAAGGCGAAUAUU [Mat - Same State 1 - Mod of UCT - D39] (puzzle: Same State 1)	–	–	–	150	70.8	163
GAGUAGUUGGAAGGAUAUCGAUUGUUAUAGAAUCGAGAAGGUCCUAACAUGAGGAUCACCCAUGUAGGACUAUUCCUGUGUAUC [Parity 76 - Jieux - Same State NG 1] (Eterna round: R96, puzzle: Same State NG 1)	–	8.12	–	–	–	–
GCUCGUAUCACAACCAACAUGAGGAUCACCCAUGUAUGUUGGUAGGAUAUCUAUAUUAAGGAUAUAGAGAAGGGCCGAACGAGC [SameState NG3 #12] (Eterna round: R96, puzzle: Same State NG 3)	53.7	59.7	82.3	–	–	–
GGAGCCGGCACUGAGGAUAUUCAUAUUAAAACAUGAGGAUCACCCAUGUAGGCCAGAAGGCCUUGGGAGAAGGCAGGUCGGCUCG [salish99_ss2_r3_075] (Eterna round: R96, puzzle: Same State 2)	20	188	283	–	–	–

Sequence	apparent KD of MS2 coat protein (input ligand: FMN 200 uM) [nM]	apparent KD of MS2 coat protein [1] [nM]	apparent KD of MS2 coat protein (input ligand: none) [nM]	apparent KD of MS2 coat protein [2] [nM]	apparent KD of MS2 coat protein [3] [nM]	apparent KD of MS2 coat protein [4] [nM]
ACACAGCUGGGUGAGGAUAUCGGUGGUAAAACAUGAGGAUCACCCAUGUCCGAAGCUCGGACUUCCGAGAAGGCGCCCGGCUGCA [Areronanma] (puzzle: Same State 2)	–	–	–	86.4	12.4	151
GGAGCCGGCCUAGGAUAUUUCAUAAAGAAACAUGAGGAUCACCCAUGUAGGCCAGAAGGCCUUGGGAAGAAGGAGGUCGGCUCC [Loop Effect - G27] (Eterna round: R96, puzzle: Same State NG 2)	12.4	29	28.7	–	–	–
AGCUAGUACCGAGGAUAUACAUACAUGAGGAUCACCCAUGUAUACAUGAAAUAUUGAGACUACAUGUAGAAGGCGGUACUAGCA [Mat - Same State NG 2 - JL mod - D44] (Eterna round: R96, puzzle: Same State NG 2)	13.6	28.4	46.4	–	–	–
GGUCGGACAAAACAUGAGGAUCACCCAUGUCCGGAAACGGCAUAGGAUAUCUGUCCGAAAAGGUCAGAGAAGGGUGAACCGACC [Fiskers NG3ss - 70] (Eterna round: R96, puzzle: Same State NG 3)	91.2	26.1	140	–	–	–
UGUAAACAUGAGGAUCACCCAUGUAAUAUAAUGGGAGGAUAUCUGAAUUAAUUAAAUUAAGGAGAAGGCCUAAUGG [Mat - Same State 1 - Mod of Eli - D48] (puzzle: Same State 1)	–	–	–	995	79.8	563
GCCAUCCAGUGAGGAUAUGGCACCGUUUCGGUGCCAGAAGGCAUGUCAAUUGACAUGAGGAUCACCCAUGUAUUAUGGAUGGCA [JL Fiskers NG1ss - 33 mod 1] (Eterna round: R96, puzzle: Same State NG 1)	96.2	423	1110	–	–	–
GCGAACUGUGUAGGAUAUUGAGCACUUUUGGAGCAAGAAGGACACCAAGUGCUGACUAUACAUGAGGAUCACCCAUGUUCAGCA [Eternabot solution 22] (Eterna round: R96, puzzle: Same State NG 1)	–	21.4	–	–	–	–
AGUGAACAUGAGGAUCACCCAUGUGAGAGAAGUGUAGGAUAUGUGAGGAGCAGAGGAGGGACAGAAGGACAUGGAG [JR_SS!_Sub074] (puzzle: Same State 1)	–	–	–	38	32.1	51.8
GACAUUCUAUCUCAGGAUAUCAUGUCAAAGACAUGAGGAUCACCCAUGUACCAGGAAACUGGUUAUGAGAAGGGAGAUAGAAUGA [Mat - Same State 2 - Mod - D46] (puzzle: Same State 2)	–	–	–	1880	103	176
GGUCGGAACCACAUGAGGAUCACCCAUGUUCCGGAAACGGCACAGGAUAUCUGUCCGAAAAGGUCAGAGAAGGGUGAACCGACC [Fiskers NG3ss - 76] (Eterna round: R96, puzzle: Same State NG 3)	285	247	445	–	–	–
GAGUAGUUGAAAGGAUAUUGAUUGUUAUAGAAUCAAGAAGGUUCUAACAUGAGGAUCACCCAUGUAGGACUAUUCCUGUGUAUC [Parity 78 - Jieux - Same State NG 1] (Eterna round: R96, puzzle: Same State NG 1)	–	9.15	–	–	–	–
AUAAAACAUGAGGAUCACCCAUGUCAACAAAUUCGAGGAUAUGGGCAAAUAAAAUAAGAACCAGAAGGCGAAUAAU [salish99_ss1_r3_038] (puzzle: Same State 1)	–	–	–	104	18.1	86.1
AACCCGAUGGAAGGAUAUGGCACCUUAUUGGUGCCAGAAGGUCCAAACAUGAGGAUCACCCAUGUGGGCCGGUCGAAAGACCGG [Fiskers NG1ss - 11] (Eterna round: R96, puzzle: Same State NG 1)	32.4	53.2	75.2	–	–	–
UUUAUACAUGAGGAUCACCCAUGUCAACGUAGUCGAGGAUAUGGGCAGCCGUGAGGCGUACUAGAAGGCGAAGAGG [JL-ss1-3.08 ViennaUCT mod] (puzzle: Same State 1)	–	–	–	38.8	49.7	118
ACAGAGUGAAGACAGGAUAUUCGCGAUGGCACAUGAGGAUCACCCAUGUUUUGAGCACAUAAACAGAAGAAGGGUUAAAACUCAG [Zadier] (Eterna round: R96, puzzle: Same State 2)	13.6	74.1	104	–	–	–
